According to publication PMC7056577:
“And” between values parts separate entries of the source, which are not always exact repeats. Equal values may be shown once.

Molecular target: T1, Arabidopsis CRY1 expressed in transgenic Arabidopsis (GFP-CRY1 and Myc-CRY1) (Arabidopsis), Q43125
T1 chain: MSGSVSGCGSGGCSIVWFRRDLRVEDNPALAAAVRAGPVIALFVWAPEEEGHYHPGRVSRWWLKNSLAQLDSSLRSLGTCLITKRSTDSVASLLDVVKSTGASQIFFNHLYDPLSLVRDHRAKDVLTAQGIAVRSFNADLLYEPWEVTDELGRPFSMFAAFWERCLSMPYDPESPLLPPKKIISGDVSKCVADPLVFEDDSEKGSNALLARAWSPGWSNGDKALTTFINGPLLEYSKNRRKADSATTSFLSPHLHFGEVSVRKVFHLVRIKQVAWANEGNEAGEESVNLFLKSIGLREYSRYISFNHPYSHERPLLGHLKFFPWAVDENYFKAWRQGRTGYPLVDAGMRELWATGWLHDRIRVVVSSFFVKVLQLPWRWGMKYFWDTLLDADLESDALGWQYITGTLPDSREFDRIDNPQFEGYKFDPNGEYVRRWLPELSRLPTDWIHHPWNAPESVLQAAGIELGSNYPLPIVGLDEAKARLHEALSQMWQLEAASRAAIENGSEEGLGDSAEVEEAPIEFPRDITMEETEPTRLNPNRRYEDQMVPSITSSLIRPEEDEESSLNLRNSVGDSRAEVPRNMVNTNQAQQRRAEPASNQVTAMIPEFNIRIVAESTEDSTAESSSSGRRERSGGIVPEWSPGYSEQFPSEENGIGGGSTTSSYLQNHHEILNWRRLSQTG
Test: co-IP
Conditions: remark: other sources report otherwise

60F50 (fluence rate of blue light for 50% photooligomerization after 60 seconds): 14.9 μmolm^−2s^−1 and 16.2 μmolm^−2s^−1
B1: Arabidopsis CRY1 expressed in transgenic Arabidopsis (GFP-CRY1 and Myc-CRY1), Q43125 1-681 (natural protein)
chain: MSGSVSGCGSGGCSIVWFRRDLRVEDNPALAAAVRAGPVIALFVWAPEEEGHYHPGRVSRWWLKNSLAQLDSSLRSLGTCLITKRSTDSVASLLDVVKSTGASQIFFNHLYDPLSLVRDHRAKDVLTAQGIAVRSFNADLLYEPWEVTDELGRPFSMFAAFWERCLSMPYDPESPLLPPKKIISGDVSKCVADPLVFEDDSEKGSNALLARAWSPGWSNGDKALTTFINGPLLEYSKNRRKADSATTSFLSPHLHFGEVSVRKVFHLVRIKQVAWANEGNEAGEESVNLFLKSIGLREYSRYISFNHPYSHERPLLGHLKFFPWAVDENYFKAWRQGRTGYPLVDAGMRELWATGWLHDRIRVVVSSFFVKVLQLPWRWGMKYFWDTLLDADLESDALGWQYITGTLPDSREFDRIDNPQFEGYKFDPNGEYVRRWLPELSRLPTDWIHHPWNAPESVLQAAGIELGSNYPLPIVGLDEAKARLHEALSQMWQLEAASRAAIENGSEEGLGDSAEVEEAPIEFPRDITMEETEPTRLNPNRRYEDQMVPSITSSLIRPEEDEESSLNLRNSVGDSRAEVPRNMVNTNQAQQRRAEPASNQVTAMIPEFNIRIVAESTEDSTAESSSSGRRERSGGIVPEWSPGYSEQFPSEENGIGGGSTTSSYLQNHHEILNWRRLSQTG
